Assay results: IntAct's records for PubMed 31515488

B1: Nuclear autoantigen Sp-100 (Homo sapiens), P23497 (parent)
chain: MAGGGGDLSTRRLNECISPVANEMNHLPAHSHDLQRMFTEDQGVDDRLLYDIVFKHFKRNKVEISNAIKKTFPFLEGLRDRDLITNKMFEDSQDSCRNLVPVQRVVYNVLSELEKTFNLPVLEALFSDVNMQEYPDLIHIYKGFENVIHDKLPLQESEEEEREERSGLQLSLEQGTGENSFRSLTWPPSGSPSHAGTTPPENGLSEHPCETEQINAKRKDTTSDKDDSLGSQQTNEQCAQKAEPTESCEQIAVQVNNGDAGREMPCPLPCDEESPEAELHNHGIQINSCSVRLVDIKKEKPFSNSKVECQAQARTHHNQASDIIVISSEDSEGSTDVDEPLEVFISAPRSEPVINNDNPLESNDEKEGQEATCSRPQIVPEPMDFRKLSTFRESFKKRVIGQDHDFSESSEEEAPAEASSGALRSKHGEKAPMTSRSTSTWRIPSRKRRFSSSDFSDLSNGEELQETCSSSLRRGSGSQPQEPENKKCSCVMCFPKGVPRSQEARTESSQASDMMDTMDVENNSTLEKHSGKRRKKRRHRSKVNGLQRGRKKDRPRKHLTLNNKVQKKRWQQRGRKANTRPLKRRRKRGPRIPKDENINFKQSELPVTCGEVKGTLYKERFKQGTSKKCIQSEDKKWFTPREFEIEGDRGASKNWKLSIRCGGYTLKVLMENKFLPEPPSTRKKRILESHNNTLVDPCEEHKKKNPDASVKFSEFLKKCSETWKTIFAKEKGKFEDMAKADKAHYEREMKTYIPPKGEKKKKFKDPNAPKRPPLAFFLFCSEYRPKIKGEHPGLSIDDVVKKLAGMWNNTAAADKQFYEKKAAKLKEKYKKDIAAYRAKGKPNSAKKRVVKAEKSKKKKEEEEDEEDEQEEENEEDDDK
partner: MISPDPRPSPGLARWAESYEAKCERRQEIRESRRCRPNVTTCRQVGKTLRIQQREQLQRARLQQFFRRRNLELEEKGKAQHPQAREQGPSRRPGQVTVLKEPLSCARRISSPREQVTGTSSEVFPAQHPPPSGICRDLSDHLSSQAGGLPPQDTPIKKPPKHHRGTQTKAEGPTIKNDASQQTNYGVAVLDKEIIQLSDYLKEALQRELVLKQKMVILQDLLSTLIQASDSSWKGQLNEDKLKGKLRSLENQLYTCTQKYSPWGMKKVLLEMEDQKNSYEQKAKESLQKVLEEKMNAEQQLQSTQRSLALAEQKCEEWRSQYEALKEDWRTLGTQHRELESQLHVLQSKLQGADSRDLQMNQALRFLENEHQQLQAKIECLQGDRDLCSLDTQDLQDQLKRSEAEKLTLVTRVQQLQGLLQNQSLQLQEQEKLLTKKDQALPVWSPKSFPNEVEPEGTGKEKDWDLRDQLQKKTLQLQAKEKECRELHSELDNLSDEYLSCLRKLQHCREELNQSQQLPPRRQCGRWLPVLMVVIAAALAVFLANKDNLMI
B2: Keratin, type I cytoskeletal 18 (Homo sapiens), P05783 (parent)
chain: MSFTTRSTFSTNYRSLGSVQAPSYGARPVSSAASVYAGAGGSGSRISVSRSTSFRGGMGSGGLATGIAGGLAGMGGIQNEKETMQSLNDRLASYLDRVRSLETENRRLESKIREHLEKKGPQVRDWSHYFKIIEDLRAQIFANTVDNARIVLQIDNARLAADDFRVKYETELAMRQSVENDIHGLRKVIDDTNITRLQLETEIEALKEELLFMKKNHEEEVKGLQAQIASSGLTVEVDAPKSQDLAKIMADIRAQYDELARKNREELDKYWSQQIEESTTVVTTQSAEVGAAETTLTELRRTVQSLEIDLDSMRNLKASLENSLREVEARYALQMEQLNGILLHLESELAQTRAEGQRQAQEYEALLNIKVKLEAEIATYRRLLEDGEDFNLGDALDSSNSMQTIQKTTTRRIVDGKVVSETNDTKVLRH
B3: Forkhead box protein R2 (Homo sapiens), Q6PJQ5 (parent)
chain: MDLKLKDCEFWYSLHGQVPGLLDWDMRNELFLPCTTDQCSLAEQILAKYRVGVMKPPEMPQKRRPSPDGDGPPCEPNLWMWVDPNILCPLGSQEAPKPSGKEDLTNISPFPQPPQKDEGSNCSEDKVVESLPSSSSEQSPLQKQGIHSPSDFELTEEEAEEPDDNSLQSPEMKCYQSQKLWQINNQEKSWQRPPLNCSHLIALALRNNPHCGLSVQEIYNFTRQHFPFFWTAPDGWKSTIHYNLCFLDSFEKVPDSLKDEDNARPRSCLWKLTKEGHRRFWEETRVLAFAQRERIQECMSQPELLTSLFDL
partner: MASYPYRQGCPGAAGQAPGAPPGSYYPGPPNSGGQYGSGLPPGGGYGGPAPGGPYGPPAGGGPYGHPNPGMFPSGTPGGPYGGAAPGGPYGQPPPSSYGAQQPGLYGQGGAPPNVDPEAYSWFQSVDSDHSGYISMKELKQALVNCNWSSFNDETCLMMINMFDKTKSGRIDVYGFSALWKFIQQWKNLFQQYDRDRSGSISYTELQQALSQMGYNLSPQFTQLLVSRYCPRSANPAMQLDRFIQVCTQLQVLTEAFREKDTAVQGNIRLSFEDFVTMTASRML
B4: Dynein axonemal assembly factor 19 (Homo sapiens), Q8IW40 (parent)
chain: MERNDIINFKALEKELQAALTADEKYKRENAAKLRAVEQRVASYEEFRGIVLASHLKPLERKDKMGGKRTVPWNCHTIQGRTFQDVATEISPEKAPLQPETSADFYRDWRRHLPSGPERYQALLQLGGPRLGCLFQTDVGFGLLGELLVALADHVGPADRAAVLGILCSLASTGRFTLNLSLLSRAERESCKGLFQKLQAMGNPRSVKEGLSWEEQGLEEQSGGLQEEERLLQELLELYQVD
B5: Vesicle transport through interaction with t-SNAREs homolog 1B (Homo sapiens), Q9UEU0 (parent)
chain: MASSAASSEHFEKLHEIFRGLHEDLQGVPERLLGTAGTEEKKKLIRDFDEKQQEANETLAEMEEELRYAPLSFRNPMMSKLRNYRKDLAKLHREVRSTPLTATPGGRGDMKYGIYAVENEHMNRLQSQRAMLLQGTESLNRATQSIERSHRIATETDQIGSEIIEELGEQRDQLERTKSRLVNTSENLSKSRKILRSMSRKVTTNKLLLSIIILLELAILGGLVYYKFFRSH
partner: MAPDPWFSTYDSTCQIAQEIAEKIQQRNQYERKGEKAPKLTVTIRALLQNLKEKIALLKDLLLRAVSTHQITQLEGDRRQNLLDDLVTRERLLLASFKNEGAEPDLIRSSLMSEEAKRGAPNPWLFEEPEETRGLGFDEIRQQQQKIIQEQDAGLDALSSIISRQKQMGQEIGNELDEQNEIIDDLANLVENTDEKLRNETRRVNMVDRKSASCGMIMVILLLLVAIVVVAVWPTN

Variants of: B1
Settings: with TRAF3IP3, Q9Y228

Variant	effect of a mutation on the interaction
M433V	with no effect

Variants of: B2
Settings: with KRT15, P19012
Sequence of KRT15, P19012 (P19012 whole entry): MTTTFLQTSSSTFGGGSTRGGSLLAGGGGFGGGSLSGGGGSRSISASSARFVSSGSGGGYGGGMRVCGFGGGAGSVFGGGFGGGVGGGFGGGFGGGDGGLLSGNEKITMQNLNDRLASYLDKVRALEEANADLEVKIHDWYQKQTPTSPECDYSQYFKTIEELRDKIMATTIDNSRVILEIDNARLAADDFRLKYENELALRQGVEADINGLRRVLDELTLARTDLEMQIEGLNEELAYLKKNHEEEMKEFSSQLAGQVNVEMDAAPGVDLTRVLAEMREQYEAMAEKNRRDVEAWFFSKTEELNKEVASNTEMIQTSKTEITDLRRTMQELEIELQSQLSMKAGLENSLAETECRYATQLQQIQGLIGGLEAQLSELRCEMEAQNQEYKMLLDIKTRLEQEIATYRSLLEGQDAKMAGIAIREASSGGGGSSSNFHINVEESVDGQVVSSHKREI

Variant	effect of a mutation on the interaction
MSFTTRSTFSTNYRSLGSVQAPSYGARPVSSAASVYAGAGGSGSRISVSRSTSFRGGMGSGGLATGIAGGLAGMGGIQNEKETMQSLNDRLASYLDRVRSLETENRRLESKIREHLEKKGPQVRDWSHYFKIIEDLRAQIFANTVDNARVVLQIDNARLAADDFRVKYETELAMRQSVENDIHGLRKVIDDTNITRLQLETEIEALKEELLFMKKNHEEEVKGLQAQIASSGLTVEVDAPKSQDLAKIMADIRAQYDELARKNREELDKYWSQQIEESTTVVTTQSAEVGAAETTLTELRRTVQSLEIDLDSMRNLKASLENSLREVEARYALQMEQLNGILLHLESELAQTRAEGQRQAQEYEALLNIKVKLEAEIATYRRLLEDGEDFNLGDALDSSNSMQTIQKTTTRRIVDGKVVSETNDTKVLRH [I150V]	with no effect

Variants of: B3
Settings: with pef1_human PEF1, Q9UBV8

Variant	effect of a mutation on the interaction
MDLKLKDCEFWYSLHGQVPGLLDWDMRNELFLPCTTDQCSLAEQILAKYRVGVMKPPEMPQKRRPSPDGDGPPCEPNLWMWVDPNILCPLGSQEAPKPSGKEDLTNISPFPQPPQKDEGSNCSEDKVVESLPSSSSEQSPLQKQGIHSPSDFELTEEEAEEPDDNSLQSPEMKCYQSQKLWQINNQEKSWQRPPLNCSHLIALALRNNPHCGLSVQEFYNFTRQHFPFFWTAPDGWKSTIHYNLCFLDSFEKVPDSLKDEDNARPRSCLWKLTKEGHRRFWEETRVLAFAQRERIQECMSQPELLTSLFDL [I218F]	disrupting interaction strength
MDLKLKDCEFWYSLHGQVPGLLDWDMRNELFLPCTTDQCSLAEQILAKYRVGVMKPPEMPQKRRPSPDGDGPPCEPNLWMWVDPNILCPLGSQEAPKPSGKEDLTNISPFPQPPQKDEGSNCSEDKVVESLPSSSSEQSPLQKQGIHSPSDFELTEEEAEEPDDNSLQSPEMKCYQSQKLWQINNQEKSWQRPPLNCSHLIALALRNNPHCGLSVQEIYNFTRQHFPFFWTAPDGWKSTIHYNLCFLDSFEKVPDSLKDEDNARPRSCLWKLTKEGHRRFWEETRALAFAQRERIQECMSQPELLTSLFDL [V286A]	with no effect

Variants of: B4
Settings: with hgs_human HGS

Variant	effect of a mutation on the interaction
MERNDIINFKALEKELQAALTADEKYRRENAAKLRAVEQRVASYEEFRGIVLASHLKPLERKDKMGGKRTVPWNCHTIQGRTFQDVATEISPEKAPLQPETSADFYRDWRRHLPSGPERYQALLQLGGPRLGCLFQTDVGFGLLGELLVALADHVGPADRAAVLGILCSLASTGRFTLNLSLLSRAERESCKGLFQKLQAMGNPRSVKEGLSWEEQGLEEQSGGLQEEERLLQELLELYQVD [K27R]	with no effect

Variants of: B4
Settings: with vac14_human VAC14, Q08AM6
Sequence of vac14_human VAC14, Q08AM6 (Q08AM6 whole entry): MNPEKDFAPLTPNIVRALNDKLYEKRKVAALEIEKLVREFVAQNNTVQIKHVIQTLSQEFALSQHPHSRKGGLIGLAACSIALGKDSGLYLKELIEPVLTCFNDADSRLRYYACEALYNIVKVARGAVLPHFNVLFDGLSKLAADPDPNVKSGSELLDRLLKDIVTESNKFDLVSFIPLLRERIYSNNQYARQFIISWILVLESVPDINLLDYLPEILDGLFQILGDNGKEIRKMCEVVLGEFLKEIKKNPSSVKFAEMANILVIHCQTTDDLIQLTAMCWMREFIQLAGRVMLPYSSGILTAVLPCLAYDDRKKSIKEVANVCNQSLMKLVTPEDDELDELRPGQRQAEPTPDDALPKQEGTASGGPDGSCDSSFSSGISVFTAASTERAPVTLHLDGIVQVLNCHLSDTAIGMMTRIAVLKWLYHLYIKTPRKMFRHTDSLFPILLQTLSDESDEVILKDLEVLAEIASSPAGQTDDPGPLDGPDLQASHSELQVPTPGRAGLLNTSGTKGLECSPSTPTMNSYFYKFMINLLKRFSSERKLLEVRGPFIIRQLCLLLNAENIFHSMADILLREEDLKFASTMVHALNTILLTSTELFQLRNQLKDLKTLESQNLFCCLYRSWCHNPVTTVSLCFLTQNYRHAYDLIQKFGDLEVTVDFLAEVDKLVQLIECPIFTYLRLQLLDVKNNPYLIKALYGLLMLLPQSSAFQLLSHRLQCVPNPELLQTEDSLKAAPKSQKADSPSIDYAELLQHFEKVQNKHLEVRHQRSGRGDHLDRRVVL

Variant	effect of a mutation on the interaction
MERNDIINFKALEKELQAALTADEKYKRENAAKLRAVEQRVASYEEFRGIVLASHLKPLERKDKMGGKRTVPWNCHTIQGRTFQDVATEISPEKAPLQPETSADFYRDWRRNLPSGPERYQALLQLGGPRLGCLFQTDVGFGLLGELLVALADHVGPADRAAVLGILCSLASTGRFTLNLSLLSRAERESCKGLFQKLQAMGNPRSVKEGLSWEEQGLEEQSGGLQEEERLLQELLELYQVD [H112N]	with no effect
MERNDIINFKALEKELQAALTADEKYKRENAAKLRAVEQRVASYEEFRGIVLASHLKPLERKDKMGGKRTVPWNCHTIQGRTFQDVATEISPEKAPLQPETSADFYRDWRRHLPSGPERYQALLQLGGPRLGCLFQTDVGFGLLGELLVALADPVGPADRAAVLGILCSLASTGRFTLNLSLLSRAERESCKGLFQKLQAMGNPRSVKEGLSWEEQGLEEQSGGLQEEERLLQELLELYQVD [H154P]	with no effect

Variants of: B5
Settings: with stx8_human STX8, Q9UNK0

Variant	effect of a mutation on the interaction
MASSAASSEHFEKLHEIFRGLHEDLQGVPERLLGTAGTEEKKKLIRDFDEKQQEANETLAEMEEELRYAPLSFRNPMMSKLRNYRKDLAKLHREVRSTPLTATPGGRGDMKYGIYAVENEHMNQLQSQRAMLLQGTESLNRATQSIERSHRIATETDQIGSEIIEELGEQRDQLERTKSRLVNTSENLSKSRKILRSMSRKVTTNKLLLSIIILLELAILGGLVYYKFFRSH [R124Q]	with no effect
